Measured values as given in IntAct's records for PubMed 16083711.

B1: DNA mismatch repair protein Mlh1 (Homo sapiens), P40692 (parent)
chain: MSFVAGVIRRLDETVVNRIAAGEVIQRPANAIKEMIENCLDAKSTSIQVIVKEGGLKLIQIQDNGTGIRKEDLDIVCERFTTSKLQSFEDLASISTYGFRGEALASISHVAHVTITTKTADGKCAYRASYSDGKLKAPPKPCAGNQGTQITVEDLFYNIATRRKALKNPSEEYGKILEVVGRYSVHNAGISFSVKKQGETVADVRTLPNASTVDNIRSIFGNAVSRELIEIGCEDKTLAFKMNGYISNANYSVKKCIFLLFINHRLVESTSLRKAIETVYAAYLPKNTHPFLYLSLEISPQNVDVNVHPTKHEVHFLHEESILERVQQHIESKLLGSNSSRMYFTQTLLPGLAGPSGEMVKSTTSLTSSSTSGSSDKVYAHQMVRTDSREQKLDAFLQPLSKPLSSQPQAIVTEDKTDISSGRARQQDEEMLELPAPAEVAAKNQSLEGDTTKGTSEMSEKRGPTSSNPRKRHREDSDVEMVEDDSRKEMTAACTPRRRIINLTSVLSLQEEINEQGHEVLREMLHNHSFVGCVNPQWALAQHQTKLYLLNTTKLSEELFYQILIYDFANFGVLRLSEPAPLFDLAMLALDSPESGWTEEDGPKEGLAEYIVEFLKKKAEMLADYFSLEIDEEGNLIGLPLLIDNYVPPLEGLPIFILRLATEVNWDEEKECFESLSKECAMFYSIRKQYISEESTLSGQQSEVPGSIPNSWKWTVEHIVYKALRSHILPPKHFTEDGNILQLANLPDLYKVFERC
partner: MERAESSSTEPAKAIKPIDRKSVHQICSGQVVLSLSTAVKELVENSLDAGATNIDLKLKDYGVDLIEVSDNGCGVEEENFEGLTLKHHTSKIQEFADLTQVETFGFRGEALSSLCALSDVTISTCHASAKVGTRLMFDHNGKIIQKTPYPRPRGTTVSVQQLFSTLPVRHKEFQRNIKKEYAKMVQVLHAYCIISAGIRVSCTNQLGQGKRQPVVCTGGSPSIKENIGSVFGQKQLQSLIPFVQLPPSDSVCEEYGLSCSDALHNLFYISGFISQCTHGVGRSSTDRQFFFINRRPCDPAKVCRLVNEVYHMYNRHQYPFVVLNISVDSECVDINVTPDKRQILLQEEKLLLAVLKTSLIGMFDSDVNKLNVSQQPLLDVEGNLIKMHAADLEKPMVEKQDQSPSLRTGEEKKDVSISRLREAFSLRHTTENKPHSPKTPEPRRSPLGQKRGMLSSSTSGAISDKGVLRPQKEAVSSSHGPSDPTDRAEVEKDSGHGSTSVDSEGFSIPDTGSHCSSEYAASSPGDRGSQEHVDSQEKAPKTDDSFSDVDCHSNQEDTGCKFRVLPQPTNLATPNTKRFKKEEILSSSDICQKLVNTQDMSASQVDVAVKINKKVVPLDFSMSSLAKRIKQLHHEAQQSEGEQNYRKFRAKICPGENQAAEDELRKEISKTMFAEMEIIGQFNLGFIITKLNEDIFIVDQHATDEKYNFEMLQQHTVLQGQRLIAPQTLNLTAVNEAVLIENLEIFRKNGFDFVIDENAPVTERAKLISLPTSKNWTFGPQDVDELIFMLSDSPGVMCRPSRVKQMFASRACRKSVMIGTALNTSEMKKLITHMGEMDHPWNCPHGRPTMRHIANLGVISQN

Variants of: B1
Details: with pms2_human PMS2, P54278

Row | Variant | effect of a mutation on the interaction
1 | S93G | with no effect
2 | P28L | with no effect
3 | I219V | with no effect
4 | F80V | with no effect
5 | K84E | with no effect
6 | L155R | with no effect
7 | H329P | with no effect
8 | I107R | with no effect
9 | K443Q | with no effect
10 | S247P | with no effect
11 | C77R | with no effect
12 | G67R | with no effect
13 | A29S | with no effect
14 | V213M | with no effect
